Data: US20140287985A1, “NOVEL USES OF ELAFIN” (Proteo Biotech AG, priority 2010, published 2014)
pKi: −log10 of the molar value.

Experiments:
Pseudomanae aeruginosa = conditions: cited from earlier work
IL-8 = assay: Serum IL-8 6 h after esophagectomy (ELISA); format: in vivo, human; conditions: 200 mg i.v.; 6 h postoperatively; versus placebo
Method: Blood samples were taken 6 h after finishing surgery and serum was prepared. The serum level of IL-8 was measured using a commercially available ELISA, (“Immulite, IL-8”, available from Siemens Medical Solution Diagnostics).

rats = assay: Biocompatibility: 14 days continuous intravenous infusion in rats; format: in vivo
Method: Rats were treated with up to 100 mg elafin/kg/day over a period of 14 days by continuous intravenous infusion.

human leukocyte elastase = target: T1, human leukocyte elastase (Homo sapiens, UniProt P08246); assay: Inhibition of leukocyte elastase (Ki); format: biochemical
T1 sequence (P08246 30-267): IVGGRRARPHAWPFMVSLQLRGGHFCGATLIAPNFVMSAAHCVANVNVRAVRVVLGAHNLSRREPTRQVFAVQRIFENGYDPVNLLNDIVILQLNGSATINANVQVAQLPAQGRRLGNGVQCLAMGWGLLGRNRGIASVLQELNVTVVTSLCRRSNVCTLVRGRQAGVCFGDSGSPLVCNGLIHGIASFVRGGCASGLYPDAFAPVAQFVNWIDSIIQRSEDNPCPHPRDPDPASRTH
Text: The invention generally relates to novel uses of polypeptides comprising the sequence depicted in SEQ ID NO: 1 or homologue, derivatives, or fragments of the sequence depicted in SEQ ID NO: 1, for the treatment of medical conditions for which a use of […] has not yet been contemplated. […] Experiments for measuring the activity of leukocyte elastase and its inhibition can be conducted by the method described in European Patent EP 0 402 068. As used herein, the term “homologue” refers to peptides or polypeptides which share a substantial degree of homology on the amino acid level with the sequence of SEQ ID NO: 1 over a certain stretch of its primary structure. In particular, the term “homologue” relates to polypeptides having a sequence (or comprising such sequence) which differs from the sequence depicted in SEQ ID NO: 1 by the substitution (or deletion) of one or more single amino acids. Generally, any amino acid from the sequence depicted in SEQ ID NO: 1 can be deleted or substituted against another amino acid as long as the inhibitory activity of the polypeptide is not lost. Further polypeptides are also included which differ from the sequence of SEQ ID NO: 1 by the insertion of one or more additional amino acids. “One or more” in the above context always refers to 1-50, preferably 1-20, even more preferably 1-10, most preferably 1-5. […]

[1] = Plasma Elafin levels (ELISA) after subcutaneous injection in a healthy human volunteer; format: in vivo; conditions: 100 mg subcutaneously, n = 1
Method: 100 mg of Elafin physiological saline were injected subcutaneously into the abdomen of a healthy human volunteer. Blood samples were removed at the times indicated in FIG. 9 and plasma prepared and stored at −20° C. The plasma Elafin levels were measured using an ELISA.

CRP = conditions: 200 mg i.v.; first postoperative day; versus placebo
Method: Patients undergoing esophagectomy for esophagus carcinoma were administered either 200 mg Elafin in 250 mL physiological saline (verum) or 250 mL saline (placebo) i.v. over a period of 30 min beginning 15 min before the commencement of surgery. Serum was prepared from blood samples which were taken on admission and on the day after surgery. The serum levels of CRP were measured using a commercially available ELISA. (CRPL 3, cobas®, available from Roche/Hitachi).

elastase = assay: Stability of Elafin to sterilization, elastase inhibitory activity; format: biochemical
Method: (§1) Lyophilized samples of 300 μg Elafin were sterilized either by heat sterilization or by ethylene oxide sterilization in a suitable standard sterile packing material. After sterilization, samples were dissolved in 300 μl distilled water. Elafin was quantified by HPLC (reverse phase C8-separation medium) and by determination of elastase inhibitory activity.

[2] = Plasma Elafin levels (ELISA) in patients undergoing esophagectomy; format: in vivo, human
Method: Blood samples were removed at the intervals indicated and plasma was prepared and stored frozen at −20° C. Plasma Elafin levels were measured using an ELISA.

[3] = Phase I: plasma Elafin concentrations (ELISA) after single intravenous infusion in healthy male volunteers
Method: Each dose was administered to 6 individuals. After Elafin administration blood samples were taken at the indicated times from each volunteer and the plasma prepared and frozen to −20° C. Elafin in the plasma samples was quantified using an ELISA.

IL-6 = assay: Serum IL-6 2 h after esophagectomy (immunoassay); format: in vivo, human; conditions: 200 mg i.v.; 2 h postoperatively; versus placebo
Method: Blood samples were taken 2 h after finishing surgery and serum was prepared. The serum level of IL-6 was measured using a routine immunoassay (“Immulite, IL-6”, available from Siemens Medical Solution Diagnostics).

Staphylococcus aureus = conditions: cited from earlier work
[4] = Period of postoperative intensive care (ICU) after esophagectomy; format: in vivo, human; conditions: 200 mg i.v.
Text: After surgery all patients were routinely admitted to the intensive care unit (ICU) at least overnight. Patients were maintained in the ICU for as long as the treating physician considered necessary.

[5] = Stability of Elafin to sterilization, quantified by HPLC; format: physicochemical
Method: as §1

serum elastase [6] = target: T2, serum elastase (Homo sapiens, UniProt P08246); assay: Serum elastase activity after subcutaneous injection in a healthy human volunteer; format: in vivo; conditions: 100 mg subcutaneously; within the first 30 min-4 hours
T2 construct: from tissue; host or cells: human serum
T2 sequence (P08246 30-267): T1 sequence (P08246 30-267)
Method: 100 mg of Elafin in physiological saline were injected subcutaneously into the abdomen of a healthy human volunteer. Blood samples were removed at the times indicated in FIG. 10 and serum prepared and stored at −20° C.

[7] = target: T3, leukocyte elastase activity in the serum (Homo sapiens, UniProt P08246); assay: Phase I: serum elastase activity after single intravenous infusion in healthy male volunteers; format: in vivo
T3 construct: from tissue; host or cells: human serum (ex vivo, after in vivo dosing of Elafin)
T3 sequence (P08246 30-267): T1 sequence (P08246 30-267)
Method: In order to assess the potential pharmacological effect of administered Elafin the inhibition of leukocyte elastase activity in the serum was measured.
The data presented in FIG. 7 were obtained in a Phase I clinical trial.
Within each dosage group the median elastase activity is shown relative to the predose value at t=0 min.

serum elastase [8] = target: T2, serum elastase; assay: Serum elastase activity (photometric assay) in patients undergoing esophagectomy; format: in vivo; conditions: 200 mg i.v. over 30 min, beginning 15 min before surgery
Method: Blood samples were removed at the intervals indicated and serum was prepared and stored frozen at −20° C. Serum elastase activity was determined using a photometric assay.

[9] = rats, up to 100 mg/kg/day, 14 days continuous i.v. infusion

## Elafin: Human anti-protease polypeptide of 57 amino acids, about 6 kDa (SEQ ID NO: 1); reversible inhibitor of neutrophil elastase and proteinase 3 (AQEPVKGPVSTKPGSCPIILIRCAMLNPPNRCLKDTDCPGIKKCCEGSCGMACFVPQ; listed as Homo sapiens)
Pseudomanae aeruginosa
  kill Pseudomanae aeruginosa: kill
IL-8
  diminution of postoperative increase in serum IL-8: about 70%
rats; intravenously to rats
  side effects: without any side effects
rats; [9]
  body weight: Neither food consumption nor body weight was influenced
  clinical signs of haemolysis or cytotoxicity in skin, eyes, mucous membranes, lungs and circulation: no clinical signs of haemolysis or cytotoxicity were observed
  food consumption: Neither food consumption nor body weight was influenced
  mortality: No mortality
Human leukocyte elastase
  pKi: ~10.00
[1]
  time of peak plasma concentration after administration: about 60 min
CRP
  diminution of postoperative increase in serum CRP: about 70%
elastase; Control (room temperature)
  Inhibitory activity: 100%
elastase; Ethylene oxide sterilization
  Inhibitory activity: 101%
elastase; Heat sterilization
  Inhibitory activity: −19- %
[2]; 200 mg i.v. at the beginning of surgery
  half life estimated from plasma levels in esophagectomy patients: at most 2 h
[2]; 200 mg i.v. over 30 min, beginning 15 min before surgery
  period of significant plasma Elafin concentrations after the end of the operation: up to 6 h
[3]; on average
  half-life of elafin in plasma: 1.92 h
[3]; single i.v. infusion, healthy volunteers
  mode of elimination from plasma: eliminated in two first-order processes
IL-6
  diminution of postoperative increase in serum IL-6: about 80%
Staphylococcus aureus
  kill Staphylococcus aureus: kill
[4]; compared with placebo
  period of postoperative ICU care required: significant reduction
[4]; meaning of 'significant reduction' (at least 25% or one day)
  reduction of necessity for intensive care: at least 25%
[5]; Control (room temperature)
  HPLC (Elafin quantified): 108 µg
[5]; Ethylene oxide sterilization
  HPLC (Elafin quantified): 100 µg
[5]; Heat sterilization
  HPLC (Elafin quantified): 0 µg
Serum elastase [6]
  inhibition of serum elastase activity: potent inhibition
[7]; 20 mg i.v.
  Median t50% (duration of serum elastase inhibition to a threshold level of 50%): 40 min
[7]; 200 mg i.v.
  Median t50% (duration of serum elastase inhibition to a threshold level of 50%): 480 min
[7]; 400 mg i.v.
  Median t50% (duration of serum elastase inhibition to a threshold level of 50%): 720 min
[7]; doses of 100-400 mg i.v.
  period of pharmacologically relevant elastase inhibition: up to 720 min
[7]; single i.v. infusion over 30 min, various doses
  inhibition of serum elastase: rapid and potent inhibition
Serum elastase [8]
  serum elastase activity during the period of surgery: markedly reduced
  serum elastase activity in the course of the subsequent 3 postoperative days: recovered to slightly less than the preoperative level
